Source: article PMC8347636

Tests used:
[1] = immunofluorescence, nuclear localisation, all cell lines; conditions: glycan lost; control: wild type ER-tag CD24
[2] = immunofluorescence, % cells with plasma membrane CD24, MCF-7; conditions: glycan lost; control: wild type ER-tag CD24
[3] = immunofluorescence, % cells with plasma membrane CD24, Hs578T; conditions: glycan lost; control: wild type ER-tag CD24
[4] = immunofluorescence, % cells with plasma membrane CD24, HEK293T; conditions: glycan lost; control: wild type ER-tag CD24
[5] = immunofluorescence, % cells with plasma membrane CD24, MDA-MB-231; conditions: glycan lost; control: wild type ER-tag CD24
[6] = confocal immunofluorescence, plasma membrane vs cytoplasm, MCF-7; conditions: glycan changed form; control: untreated cells, same construct
[7] = confocal immunofluorescence, plasma membrane vs cytoplasm, HEK293T; conditions: glycan changed form; control: untreated cells, same construct
[8] = confocal immunofluorescence, % cells with plasma membrane CD24, Hs578T; conditions: glycan changed form; control: untreated cells, same construct
[9] = confocal immunofluorescence, % cells with plasma membrane CD24, MDA-MB-231; conditions: glycan changed form; control: untreated cells, same construct

Protein | localisation_or_trafficking [1] | localisation_or_trafficking [2] | localisation_or_trafficking [3] | localisation_or_trafficking [4] | localisation_or_trafficking [5] | localisation_or_trafficking [6] | localisation_or_trafficking [7] | localisation_or_trafficking, other: % decrease in cells with membrane CD24 [8] | localisation_or_trafficking [9]
CD24: N36Q (protein) parent chain: MGRAMVARLGLGLLLLALLLPTQIYSSETTTGTSSNSSQSTSNSGLAPNPTNATTKAAGGALQSTASLFVVSLSLLHLYS | no change | no change | decreases | decreases | no change |  |  |  | 
CD24: N36,52Q (protein) parent chain: MGRAMVARLGLGLLLLALLLPTQIYSSETTTGTSSNSSQSTSNSGLAPNPTNATTKAAGGALQSTASLFVVSLSLLHLYS | no change | no change | decreases | decreases | decreases |  |  |  | 
CD24: N52Q (protein) parent chain: MGRAMVARLGLGLLLLALLLPTQIYSSETTTGTSSNSSQSTSNSGLAPNPTNATTKAAGGALQSTASLFVVSLSLLHLYS | no change | no change | decreases | decreases | decreases |  |  |  | 
CD24: kifunensine, wild type CD24 (protein) parent chain: MGRAMVARLGLGLLLLALLLPTQIYSSETTTGTSSNSSQSTSNSGLAPNPTNATTKAAGGALQSTASLFVVSLSLLHLYS |  |  |  |  |  | no change | decreases | decreases | 
CD24: kifunensine, WT-CD24 (protein) parent chain: MGRAMVARLGLGLLLLALLLPTQIYSSETTTGTSSNSSQSTSNSGLAPNPTNATTKAAGGALQSTASLFVVSLSLLHLYS |  |  |  |  |  |  |  |  | decreases
